Assay: label from the status in PepcDB records
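Further: failed if final PepcDB status was selected cloned or expressed and not failed if soluble or beyond.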

| Sequence | protein production |
| --- | --- |
| KRRIRQLELQVRMLEADKERLERELSRLRSEMSRLRQPPAFAGSVIEVLDDDRAIVQNYNGPRFVVRIAPWIDKSKLRPGTRVALDQRTMAIIEILPASKDPAVLGFEVVERPN | not failed |
| MVIRRLYQFCASHVVRNCSSLKCAQNIHGHNYEVEVFIETNRLDNANMALDFGLMQQEMQVFIESFDHAHHFWDKESLEFQRFIENHCVRYVKCSFNLSAESYALMFLYYLTKILQKSVFSNDEGELKVSSVRVHETKNGYAESFLKDLENPHFKSLVHDHCVSFSQGIQNLWHDKDFFNKIISDEKQCFFHAKPLHQIP | failed |
| MKKMKTLTLFLSLLFSFPFVLSAQMVGETLQKVSAALDNRQWDQAVTLFRQAVNTNVEKAEMFYWTGVDKSLEVSSRIGRELAAYYKKSRSYDKAYLFYKELLQKSPNDVNCLVSCAEMEVCRGRESEALETYRKVLSLDADNLAANIFIGNYLYLKAEREKKQLEADYKKISAPTRMQYARYRDGLSRVMSTGYGKAREYLQKVISQFPSTEAQKTLERIKLIEKEVNR | failed |
| MMSQSERPDVAEIRVPFRDVDMNGQMFLASYISYAESVLASFWSSRPDVDDEPVYSPSKVSCFLHRPLHYDEPATFTATIDKIGVRSIGFLISIDTGEERAAEVEIIWQAHAPEDQSPASLPEETRDWLYRFLN | failed |
| MIREFFQKYFIDPIKYNTGYNPVNTLVYAIILGIATLLVYKVLKRLKIEINNAFFRALIPYMIFGAFTRALTDAGVFPRTYLTVSPGIYFLVFVIAFSALLVSHKFAKDWRGVFLWFGWGLVMVDLAAMSANISKINFDFAVLKYFIPFLILAELVVFLLSKKVSLVRENSYLFYAHFYDATTTFVGVDFMGYWEQHVLPRLLIGLTGTAAVMYVLKFIILFAAVWLLKELEKEGEEKELLDFIKMVIFILGFAPGTRNLLRMLMGV | failed |
| MTYFFETYGCQMNQAESSSMEQILLEKGWTNSSDAEHCDLLIINTCSVRITAENRVLGRLGHFSGLKKKRKFFVLLIGCMAERLYTEIQKEFPLIDYVVGMFERNLLPQIFDEIKARLKNDNYMAEFTHDNIEEKPVSGYYFAPLSHSPKSFQSYVPIMNGCNNFCTYCIVPYVRGREVSRPVNEILQEITELSSRGVREITLLGQNVNSYKGEDGEGRLIDFPKLLTLIAREADKTDMIRWIRFMSSHPKDMSDALIDTIAAEKRLCKLVHLPVQHGSDTILKRMNRVYTIEHYKNRIKRLKETIPDIALSTDILMGFPGETEDDVKATLDLMQEIEFDSAFMYHYNPREGTKAFNYPDRIPEEVKIERLGRVIDLQLKITAKKMKAKLGKKVDILVESHSRNERSELFGHTEQGEMTVIQGNPPESLIGNFAHAELKELKGKTFRANLN | failed |
| MDTEIHNPHIPGGRPPSRPAIAALTFVIFMSLTLASWSVVQDLQERHENTRFDKRVAEVIHKIEHHFSGYEQVLKGALGHLLASPSVSRNEWRTYVNALRINDRYPGIHGIGFAKYIPRSGLAAHTEEVRAEGFPSYKVWPGTPRQEYTSIIYLEPFTGSNLRAFGYDMFSNAVRRAAMSRARDTGEVALTRKVKLVQETGEDIQAGVLMYLPYYGAANLPKTVEERRASLGGYVYAPFRMVDFVRATLGSELDILDLRIFDGKAMAEDSLLFDSVKHRSGPSPVPKFKRVIPISLYGQTWALEASSRPAFEKAIKNYEALLVLLGGFVVSMLTAMVSFVLSGNKEKAAALGHVNKKLLLAMEEQQATTRELSNAKLRTERILESITDAFYTLDREWRFTYVNKEAENLLQRNREDLLGRVCWEEFKETAGTTFDREYHRALMENRTVTFEEFYVPLDEWFEVHAYPSEEGLTVYFRDITERKESEQARQEAHVRIRQQASLLDKATDAIIVFGMDNCIEFWNQGAERLYGWTSEEVMGREVEMLYDNVAVFDEANRALLSSGEWRGELAQRRRDQSMLNVEAHWTLVRNDDGEPQAIFAINTDITQRKSAENEILHLALYDSLTGLPNRRLLLDRLGHALAVSARNQRMGALLFIDLDNFKLLNDTLGHDMGDLLLRQVAPRLSSCVRESDTVARLGGDEFVVILMGDFGEDHDEALTQISTICERIRSAFIQPFNLDPYIHHITPSIGIALFNDQSQTTNELLKRADLAMYQAKASGRNAMRFFDPDMQAAMNARAILESELYKSWERNEFILHYQLQVDSRGIIGAEALVRWQHPRRGLLPPSEFIPQAEETGLILPLGEWVLETACNQLASWALQPETVQLNLSVNVSSLQFCQPDFVEQVISILDRTGANPQRLKLELTESILVHDMDDTIAKMMTLKARGVGFALDDFGIGYSSLYYLKRLPLDWVKIDRSFVRDVLTDNNDATIVRTILLLAKSMGLAVIAEGVETGAQKDFLASHGCTAYQGYLFSRPLPLEQFERFVQPAAGGAV | failed |
| MKQLFQKLYDHIEITLLVLLSVSFVTGMYMMMNRPIGPTMMDYVPQVIIGTIIIVDIVFLISGRKKENSK | failed |
| MIIWSGWGFLVAIIVIINTLLGKAIFGSITGDATYFQDHSWPMAVMFIISGVMSWYLGKYINKPDGKVYIDAETGEKVMFNKKHSLFFIKMEYWGPILGVIAIVTLITR | failed |
| DGVRLLEELGAINAEAKDAKKRLTSIGRQLARLPIDPRLARMVLEAPKYGALKEVMIIAAALSIQDPRERPSDKQQSSDDKHRRFFHEESDFLTFV | failed |
| MTKGSRKSRRRQQAPTKARPEQGRSAPAQRPAPTFRLRTAALLAIGSGALFFLLASGLSWFKTSEISSPPTREAELSFVGSQACSGCHQAETRLWQSSQHRHAMDHATDTSVRGDFNDAAFEYAGTRSRFFRKDRKFLIETDGPDGKLATFEVKYAFGVDPLQQYLIEFPDGRIQALSIAWDTRPKDQGGQRWFHLYPDAAVTSSDPLHWTRLNQNWNFMCAECHSTNVHKNYDAARDRFATSFSEISVGCEACHGAGSRHVSWAQQKPAARGPDNGLLVRFDERSGITWSADAETMTPKRSAPPATLRKEVEVCGRCHARRGQFSEDWRPGKSLSETHRVSLLDRQSFHADGQMRDDEETYNYASFKQSKMFAKGVTCSDCHDPHSAALKAPGDGVCAQCHAPAKYEAAAHRQHANVSPPPGCASCHMPERRYMVVDRRHDHGFRIPRPDLSVQLGTPNACNDCHRDKPAAWAARQVETWFGPQRLGFQAYARAFHAAWSEAADAQALLSAVVANDAPGIVRAGALAELPAPDADLIRRALSDPDPLVRLGALDALEGIPADQLWTLASAQLTDPVRGVRIRAAELLASVPPSRQPAADRNKFTQAAAEFVAAQKLNADRPDARAALGNFLARQAGAAEAEAEYRAALRLDPSFPPAAINLSDLYRQLGRDSDGERILRETLTKSGQNASLHHALGLVLVREKRADEALGELRQAAELDPGQPRYAYVYAVGLHSSGRRDDALAVLRTSLQVHPNDRESVSAALALSREKGDSASALGYAEQLSRLMPGNREIEDLIKQLKQ | failed |
| MKVPEAAISRLITYLRILEELEAQGVHRTSSEQLGELAQVTAFQVRKDLSYFGSYGTRGVGYTVPVLKRELRHILGLNRKWGLCIVGMGRLGSALADYPGFGESFELRGFFDVDPEKVGRPVRGGVIEHVDLLPQRVPGRIEIALLTVPREAAQKAADLLVAAGIKGILNFAPVVLEVPKEVAVENVDFLAGLTRLSFAILNPKWREEMMG | not failed |
| PSKKYVVDIWSDFVCPWCWIAKRRFENALNRSGMQDDVQVNVRAYRLAANQAPEPMIGALKRKLGNPASADSMMSTVSKYGRADGLDYRFDTMMFGDTADAHILVKAVEDTAVKKRLVEALYEQSTSHGRSLFDRSSLEAIAREVGVSDESIQLAWSSVELRNEMKDDESFAAQLGSGVPLFVFDSSFSVSGAQPDAVFLEALNKMVANSNPE | not failed |
| MEILTCIKQVPGTTSVEVDETTGVLKRDGVDSKMNPYDLYALETALRIKEDKKANLKVLSMGPPQAKKVIEESFMMGADEGALISDRRFGGADVLATSYTISQGIKKMGKVDLIICGKQTTDGDTAQVGPEVAEFLDIPHVTNVTKLIEVKDESIVVEIDMPNDLQVCEIEYPCLITVEKDIFQPRLPSFKLKLNTKDREIPVYSLDDFEDKNENNYGLNGSPTQVVRIFPPKPNTDKNIVRGNADELSFALVNKLEELKLV | not failed |
| MTKQKSKPVEYHPFPQLVLTLDVRRSFTPTFLRQILQTRSFACVILYDSQGVQDDAVFLQKQAQIYAEDIQSNGAAFLISGERRVSERIKADGLHIEGDLKALEYCDYQKKEQKIIGFGNIRNRHCAMVAGEAGVDYLLFGKLGADKKPHAHPRNLQLARWWAEIMETPAIVQAGSDFATFDEVIKTACEFIAIEEVIFAHDNPLMLLKMMQEKCKNSPL | failed |
| MLYLFPLLAVVIWAGNAIVNKLSFGIIAPEAIAFYRWFFAMLILTPFMLKSVWKNRRRIIPLLPKLATLASLGMVLNQSLAYFAAATTTATNMALINSLVPMISLFLAVPLLKQRLSPLVLGGSVISLLGLVFMLSHGDIANLAIGVTEGDLLLLISAFVYALYGVLLKRWQLPISTWESVYIQGIIAVLMLTPLLFSAPSIAISSQATPLIVYAAFGASLIAPWAWINGINKLGAERTSIFFNLMPILAAIFAAIILNETLAIYHYLGGTMVILGVMLVQIKPKPKTTTIITCAE | failed |
| MSQKRLSRVIYPGTFDPITNGHLDLIERAAQMFDEVIIAVAASPSKNTLFTLEERVEFARQVTSHLDNVSAKGFSGLLVDFAKAEKANVLIRGLRTTVDFEYEFGLTNMYRRLMPGLESVFLTPAEEHAFISSTLVREVAIHGGNVDEFVPAIVANALHQKKKI | failed |
| MVRVFNHWFSPRKAFYFFAEETVLVVALLAGASLGPVAAQATGAAAPIAPAVLRAGLASLFFAGALYLGDLYDLHAAVRDRADGRRLLRALGVATIALAIADLSLDLVLPGWMLHRSVVLAAAGGALGVIGARALMPAVVGAPTRVLFLGAGPRARDLARAVEREADGLWAVAGFVVPEGSRAPAVVPPEALRQGPVLDVVRQARAQVVVVAMEDRREGLPVDALLALRTRGLRVVDDVGFAEATLQRIPLALVRPSALIFDEGFRVSRLTRTVKRALDLGVSAVGLLLGAPVMAAVAAAIWLSDGRPLLYSQERTGRGGRPYRIWKFRTMRRDAEKLGAAWATDDDPRVLPVGRFLRRARLDELPQLWNVLGGHMSLVGPRPERAVFLSELKARWPLFALRELVKPGLTGWAQLRYGYGSTMEEQAKKLEYDLYYIKNTTLFLDLVCLLATAKVVLLGRGAR | failed |
| MTVLKGDNLEILKTIESSSIDLIYMDPPFFTQKTQKLSNNKNIMYSFEDTWTSIEDYKEFLSVRLEECKRVLKNSGSIFVHCDKIANHHIRLILDNIFGVDMFQSEIIWNYKRWSNSKKGLLNNHQNIYFYSKSKDFKFNTIFTEYSSTTNIDQILVERKRDGNSKTIYKVDNNGNYILAKEKNGVPLSDVWNIPFLNPKAKERVGYPTQKPILLLEQIIKIATDKNDIVLDPFCGSGTTLVASKILNRNYMGIDLSEEAINITQQRLENVIKTSSNLLNKGIE | failed |
| MSVNMDELRHQVMINQFVLAAGCAADQAKQLLQAAHWQFETALSTFFQETNIPNSHHHH | not failed |
| SLKKVITVNEWYTTTVAATMLGRRPTDEDAILVSAPATSRPNVRIKAVFDGHAGEATSQYCAKHAAKHLGKLSEFTFAEVKKACLSLDAEIIRKLGPKHVAGSTGIIVAIERLSAPVVENVVGREIVPRAHEETFVPLEKLIQEEEEAEHPELVGRYPRVPDVQQKTIPAGSFLVTAINIGDSRATLIHSDGGLTRLSKDHKPNHPTEASRIEKAGGSVETFDVPRVDGVLALSRAFGDSDFKMNPNLPPEEQKVIAVPDVRQFYALSSDLLLLACDGVYEPSGMDWAYVRDLTVAEMQRSKGDLEEVAARVMDYAYDMNSQDNISVMLVAFHNQEVEHPTAVYKVVSGQVDKVEWDVAGKKGN | not failed |
| MSIQMATSNDLEWINNQYDSIGFVRSDLKRDKVAIITYNNEYAGIGRLVQIDEDTLEMGGILILPKFRGLQLAGELVSFLVETAKKLQVQHVYCLPFEELENFYKKYGYTEVDTTKEFVHPIILEKYNWCLDHYEKHVLLFKL | failed |
